From US20240116985A1 (published 2024)
Starred links: 1 amine or outer side, 2 acyl side, 3 side chain; linkers in the order of their positions; H or OH if unused. Positions of bridges follow the written chain, without caps; N, C: chain ends. Non-standard residues stand in square brackets, D forms with d. Primed or numbered codes have the meaning given here. *: point of attachment. PyrS2″ = (S)-3-amino-1-((pent-4-en-1-yloxy)carbonyl)pyrrolidine-3-carboxylic acid (stapling residue), C=CCCCOC(=O)N1CC[C@@](N[*:1])(C(=O)[*:2])C1; B5(4) = 2,2-bis(4-pentenyl)glycine = 2-amino-2-(pent-4-en-1-yl)hept-6-enoic acid (stitching residue), C=CCCCC(CCCC=C)(N[*:1])C(=O)[*:2]; B5(5) = 2,2-bis(4-pentenyl)glycine, 2-amino-2-(pent-4-en-1-yl)hept-6-enoic acid (stitching residue), C=CCCCC(CCCC=C)(N[*:1])C(=O)[*:2]; B5(33) = 2-amino-2-(pent-4-en-1-yl)hept-6-enoic acid (bis-pentenylglycine, two olefin side chains), C=CCCCC(CCCC=C)(N[*:1])C(=O)[*:2]; B5(21) = 2-amino-2-(pent-4-en-1-yl)hept-6-enoic acid, bis(4-pentenyl)glycine (stitching residue), C=CCCCC(CCCC=C)(N[*:1])C(=O)[*:2]; PyrS2 = (S)-3-amino-1-((pent-4-en-1-yloxy)carbonyl)pyrrolidine-3-carboxylic acid, C=CCCCOC(=O)N1CC[C@@](N[*:1])(C(=O)[*:2])C1; Phe(3-COOH) = N[C@@H](Cc1cccc(C(=O)O)c1)C(=O)O; Phe(2-CF3) = N[C@@H](Cc1ccccc1C(F)(F)F)C(=O)O; Phe(2-Cl) = N[C@@H](Cc1ccccc1Cl)C(=O)O; 2Nal = N[C@@H](Cc1ccc2ccccc2c1)C(=O)O; Bta = N[C@@H](Cc1csc2ccccc12)C(=O)O; Lys(iPr) = CC(C)NCCCC[C@H](N)C(=O)O; αAllylPro = C=CC[C@@]1(C(=O)O)CCCN1; tBuAla = CC(C)(C)C[C@H](N)C(=O)O; 3Thi = N[C@@H](Cc1ccsc1)C(=O)O; Cha = N[C@@H](CC1CCCCC1)C(=O)O; Propanoyl(3-OMe) = COCCC(=O)*; Ms = CS(=O)(=O)*; iPr = CC(C)*

T1: B-cat-Halo (beta-catenin HaloTag fusion expressed in HEK293 cells) (Homo sapiens (Human), UniProt P35222 1-781)
T1 sequence: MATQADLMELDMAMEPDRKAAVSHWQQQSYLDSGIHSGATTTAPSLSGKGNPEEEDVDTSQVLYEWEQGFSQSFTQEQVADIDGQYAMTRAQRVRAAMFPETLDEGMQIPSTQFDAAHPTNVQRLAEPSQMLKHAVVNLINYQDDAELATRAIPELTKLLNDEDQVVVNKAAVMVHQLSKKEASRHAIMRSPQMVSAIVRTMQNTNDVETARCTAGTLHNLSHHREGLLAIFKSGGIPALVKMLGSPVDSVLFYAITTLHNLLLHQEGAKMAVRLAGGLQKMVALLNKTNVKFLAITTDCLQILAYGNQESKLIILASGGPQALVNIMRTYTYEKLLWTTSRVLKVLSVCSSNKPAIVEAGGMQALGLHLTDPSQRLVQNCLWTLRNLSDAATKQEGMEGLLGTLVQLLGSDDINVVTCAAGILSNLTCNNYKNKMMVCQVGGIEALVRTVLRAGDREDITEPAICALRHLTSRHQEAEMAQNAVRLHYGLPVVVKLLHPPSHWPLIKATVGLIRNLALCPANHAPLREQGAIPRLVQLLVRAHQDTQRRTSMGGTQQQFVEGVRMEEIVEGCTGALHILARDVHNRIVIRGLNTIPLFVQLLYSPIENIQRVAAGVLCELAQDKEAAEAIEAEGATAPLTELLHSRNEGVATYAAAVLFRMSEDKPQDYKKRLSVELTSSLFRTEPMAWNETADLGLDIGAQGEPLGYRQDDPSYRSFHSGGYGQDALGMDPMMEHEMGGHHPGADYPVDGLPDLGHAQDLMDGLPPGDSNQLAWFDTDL

T2: B-cat-Halo (UniProt P35222 1-781)
T2 sequence (looked up): T1 sequence

T3: full-length beta-Catenin (Uniprot ID P35222) (Homo sapiens (Human), UniProt P35222 2-781)
T3 construct: full-length beta-Catenin (Uniprot ID P35222); also called bCat; B-Catenin
T3 sequence: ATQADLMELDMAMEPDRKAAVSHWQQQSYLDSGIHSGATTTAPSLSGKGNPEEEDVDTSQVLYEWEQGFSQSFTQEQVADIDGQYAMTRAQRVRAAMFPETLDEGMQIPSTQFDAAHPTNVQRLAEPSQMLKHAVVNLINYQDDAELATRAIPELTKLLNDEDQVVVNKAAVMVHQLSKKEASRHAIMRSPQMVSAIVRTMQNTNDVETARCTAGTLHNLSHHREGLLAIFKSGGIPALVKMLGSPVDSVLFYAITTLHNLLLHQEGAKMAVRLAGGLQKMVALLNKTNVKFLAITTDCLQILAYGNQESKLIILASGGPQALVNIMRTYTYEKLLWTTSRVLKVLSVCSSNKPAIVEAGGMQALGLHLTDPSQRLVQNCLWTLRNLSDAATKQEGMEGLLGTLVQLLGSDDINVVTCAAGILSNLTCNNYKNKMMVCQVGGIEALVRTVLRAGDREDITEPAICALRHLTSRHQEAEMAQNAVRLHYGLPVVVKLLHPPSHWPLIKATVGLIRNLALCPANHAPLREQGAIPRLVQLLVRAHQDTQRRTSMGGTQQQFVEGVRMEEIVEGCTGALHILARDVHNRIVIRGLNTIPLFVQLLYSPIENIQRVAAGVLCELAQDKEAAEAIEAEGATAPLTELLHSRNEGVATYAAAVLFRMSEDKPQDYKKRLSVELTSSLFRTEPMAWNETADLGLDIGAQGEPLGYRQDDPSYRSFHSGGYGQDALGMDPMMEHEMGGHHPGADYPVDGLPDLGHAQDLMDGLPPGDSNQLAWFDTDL

B1: I-2446 (peptide)
peptide: Ac-[αAllylPro]N[Cha][B5(5)]DQ[Lys(iPr)]AFL[PyrS2″][3Thi][Bta]Q-NH2
modifications: staple 1-4, 4-11; not fully specified; printed as Ac-PL3-Asn-Cha-B5-Asp-Gln-iPrLys-Ala-Phe-Leu-PyrS2-3Thi-BztA-Gln-NH2
B2: I-1258 (peptide)
peptide: Ms-[αAllylPro]D[tBuAla][B5(33)]DDAAFN[PyrS2][Phe(2-Cl)][Bta][dT]-NH2
modifications: staple 1-4, 4-11 (inferred); not fully specified; printed as MeSO2-PL3-Asp-Npg-B5-Asp-Asp-Ala-Ala-Phe-Asn-PyrS2-2C1F-BztA-dThr-NH2
B3: I-1263 (peptide)
peptide: Ac-[αAllylPro]D[tBuAla][B5(33)]DTAAFT[PyrS2]F[Bta]S-NH2
modifications: staple 1-4, 4-11 (inferred); not fully specified; printed as Ac-PL3-Asp-Npg-B5-Asp-Thr-Ala-Ala-Phe-Thr-PyrS2-Phe-BztA-Ser-NH2
B4: I-1273 (peptide)
peptide: Ac-[αAllylPro]D[tBuAla][B5(5)]DD[Lys(iPr)]AFT[PyrS2″][Phe(2-Cl)][Bta]T-NH2
modifications: staple 1-4; staple 4-11 (inferred); not fully specified; printed as Ac-PL3-Asp-Npg-B5-Asp-Asp-iPrLys-Ala-Phe-Thr-PyrS2-2C1F-BztA-Thr-NH2
B5: I-1259 (peptide)
peptide: {Propanoyl(3-OMe)}-[αAllylPro]D[tBuAla][B5(33)]DDAAFN[PyrS2][Phe(2-Cl)][Bta][dT]-NH2
modifications: staple 1-4, 4-11 (inferred); not fully specified; printed as MeOPr-PL3-Asp-Npg-B5-Asp-Asp-Ala-Ala-Phe-Asn-PyrS2-2C1F-BztA-dThr-NH2
B6: I-1376 (peptide)
peptide: Ac-[αAllylPro]DA[B5(4)]NT[Lys(iPr)]AFL[PyrS2″]F[Bta]Q-NH2
modifications: staple 1-4, 4-11
notes: also called Ac-PL3-Asp-Ala-B5-Asn-Thr-iPrLys-Ala-Phe-Leu-PyrS2-Phe-BztA-Gln-NH2
B7: I-1379 (peptide)
peptide: Ac-[αAllylPro]DA[B5(4)]NQ[Lys(iPr)]AFL[PyrS2″]F[Bta]Q-NH2
modifications: staple 1-4, 4-11
notes: also called Ac-PL3-Asp-Ala-B5-Asn-Gln-iPrLys-Ala-Phe-Leu-PyrS2-Phe-BztA-Gln-NH2
B8: I-1378 (peptide)
peptide: Ac-[αAllylPro]DA[B5(4)]NT[Lys(iPr)]AFL[PyrS2″]F[Bta]T-NH2
modifications: staple 1-4, 4-11
notes: also called Ac-PL3-Asp-Ala-B5-Asn-Thr-iPrLys-Ala-Phe-Leu-PyrS2-Phe-BztA-Thr-NH2
B9: I-1377 (peptide)
peptide: Ac-[αAllylPro]DA[B5(4)]NT[Lys(iPr)]AFL[PyrS2″]F[Bta]K-NH2
modifications: staple 1-4, 4-11
notes: also called Ac-PL3-Asp-Ala-B5-Asn-Thr-iPrLys-Ala-Phe-Leu-PyrS2-Phe-BztA-Lys-NH2
B10: I-1380 (peptide)
peptide: Ac-[αAllylPro]DA[B5(4)]NK[Lys(iPr)]AFL[PyrS2″]F[Bta]Q-NH2
modifications: staple 1-4, 4-11
notes: also called Ac-PL3-Asp-Ala-B5-Asn-Lys-iPrLys-Ala-Phe-Leu-PyrS2-Phe-BztA-Gln-NH2
B11: I-1381 (peptide)
peptide: Ac-[αAllylPro]DA[B5(4)]NT[Lys(iPr)]AFL[PyrS2″]F[2Nal]Q-NH2
modifications: staple 1-4, 4-11
notes: also called Ac-PL3-Asp-Ala-B5-Asn-Thr-iPrLys-Ala-Phe-Leu-PyrS2-Phe-2NapA-Gln-NH2
B12: I-1382 (peptide)
peptide: Ac-[αAllylPro]NA[B5(4)]DT[Lys(iPr)]AFL[PyrS2″]F[Bta]Q-NH2
modifications: staple 1-4, 4-11
notes: also called Ac-PL3-Asn-Ala-B5-Asp-Thr-iPrLys-Ala-Phe-Leu-PyrS2-Phe-BztA-Gln-NH2
B13: I-1385 (peptide)
peptide: Ac-[αAllylPro]NA[B5(21)]DQK(iPr)AFL[PyrS2″]F[Bta]Q-NH2
modifications: staple 1-4, 4-11
notes: also called Ac-PL3-Asn-Ala-B5-Asp-Gln-iPrLys-Ala-Phe-Leu-PyrS2-Phe-BztA-Gln-NH2
B14: I-1383 (peptide)
peptide: Ac-[αAllylPro]NA[B5(4)]DT[Lys(iPr)]AFL[PyrS2″]F[Bta]K-NH2
modifications: staple 1-4, 4-11
notes: also called Ac-PL3-Asn-Ala-B5-Asp-Thr-iPrLys-Ala-Phe-Leu-PyrS2-Phe-BztA-Lys-NH2
B15: I-1384 (peptide)
peptide: Ac-[αAllylPro]NA[B5(4)]DT[Lys(iPr)]AFL[PyrS2″]F[Bta]T-NH2
modifications: staple 1-4, 4-11
notes: also called Ac-PL3-Asn-Ala-B5-Asp-Thr-iPrLys-Ala-Phe-Leu-PyrS2-Phe-BztA-Thr-NH2
B16: I-1386 (peptide)
peptide: Ac-[αAllylPro]NA[B5(21)]DKK(iPr)AFL[PyrS2″]F[Bta]Q-NH2
modifications: staple 1-4, 4-11
notes: also called Ac-PL3-Asn-Ala-B5-Asp-Lys-iPrLys-Ala-Phe-Leu-PyrS2-Phe-BztA-Gln-NH2
B17: I-1387 (peptide)
peptide: Ac-[αAllylPro]NA[B5(21)]DTK(iPr)AFL[PyrS2″]F[2Nal]Q-NH2
modifications: staple 1-4, 4-11
notes: also called Ac-PL3-Asn-Ala-B5-Asp-Thr-iPrLys-Ala-Phe-Leu-PyrS2-Phe-2NapA-Gln-NH2

What follows are binders tested against T1, B-cat-Halo (beta-catenin HaloTag fusion …) (assay: cell-based or functional assay).

NanoBRET Abs IC50 [µM] | Binder
5.9 | Ac-[αAllylPro]D[tBuAla][B5(4)]D[Phe(3-COOH)]AAFL[PyrS2″][Phe(2-CF3)][RbMeBztA]Q-NH2 (staple 1-4, 4-11) [I-2458]
4.7 | Ac-[αAllylPro]D[tBuAla][B5(4)]D[Phe(3-COOH)]AAFL[PyrS2″][Phe(2-CF3)][RbMe2NapA]Q-NH2 (staple 1-4, 4-11) [I-2462]
> 20 | Ac-[αAllylPro]N[Cha][B5(4)]DT[Lys(iPr)]AFL[PyrS2″]F[Bta]Q-NH2 (staple 1-4, 4-11) [I-2448]
8.1 | Ac-[αAllylPro]D[tBuAla][B5(4)]D[Phe(3-COOH)]AAFL[PyrS2″][Phe(2-CF3)][SbMeBztA]Q-NH2 (staple 1-4, 4-11) [I-2456]
15.1 | Ac-[αAllylPro]D[tBuAla][B5(4)]D[Phe(3-COOH)]QAFL[PyrS2″][Phe(2-CF3)][RbMeBztA]A-NH2 (staple 1-4, 4-11) [I-2459]
25.4 | Ac-[αAllylPro]D[tBuAla][B5(4)]D[Phe(3-COOH)]QAFL[PyrS2″][Phe(2-CF3)][2Nal]A-NH2 (staple 1-4, 4-11) [I-2461]
20.8 | Ac-[αAllylPro]D[tBuAla][B5(4)]D[Phe(3-COOH)]QAFL[PyrS2″][Phe(2-CF3)][SbMeBztA]A-NH2 (staple 1-4, 4-11) [I-2457]
> 20 | Ac-[αAllylPro]N[Cha][B5(4)]DT[Lys(iPr)]AFL[PyrS2″]F[Bta]K-NH2 (staple 1-4, 4-11) [I-2450]
12.8 | Ac-[αAllylPro]D[tBuAla][B5(4)]D[Phe(3-COOH)]AAFL[PyrS2″][Phe(2-CF3)][2Nal]Q-NH2 (staple 1-4, 4-11) [I-2460]
> 20 | B1

The binders below were run against T2, B-cat-Halo (assay: cell-based or functional assay).

NanoBRET Abs IC50 [µM] | Binder
> 20 | B2
20 | B3
> 20 | B4
18.1 | B5

The binders below were run against T3, full-length beta-Catenin (Uniprot ID …) (assay: fluorescence polarization competition; full-length beta-catenin + 5FAM-TCF4 10-53 probe, peptide titrated).
Protocol: The plate was incubated protected from light for 60 minutes at 20° C. prior to read. Reads were performed on a CLARIOstar plate reader (BMG Labtech) in duplicate, and data were fitted to a 1:1 binding model with hill slope using an in-house script. All provided concentrations are final concentrations.

IC50 [µM] | Binder
4.21 | B6
1.44 | B7
6.17 | B8
1 | B9
10 | B10
10 | B11
2.85 | B12
1.08 | B13
1.66 | B14
10 | B15
2.25 | B16
6.94 | B17
